From patent publication US20110086026A1 (ROCHE PALO ALTO, published 2011)

T1: human IL-13Rα1 (human, UniProt P78552 22-427)
T1 sequence (looked up): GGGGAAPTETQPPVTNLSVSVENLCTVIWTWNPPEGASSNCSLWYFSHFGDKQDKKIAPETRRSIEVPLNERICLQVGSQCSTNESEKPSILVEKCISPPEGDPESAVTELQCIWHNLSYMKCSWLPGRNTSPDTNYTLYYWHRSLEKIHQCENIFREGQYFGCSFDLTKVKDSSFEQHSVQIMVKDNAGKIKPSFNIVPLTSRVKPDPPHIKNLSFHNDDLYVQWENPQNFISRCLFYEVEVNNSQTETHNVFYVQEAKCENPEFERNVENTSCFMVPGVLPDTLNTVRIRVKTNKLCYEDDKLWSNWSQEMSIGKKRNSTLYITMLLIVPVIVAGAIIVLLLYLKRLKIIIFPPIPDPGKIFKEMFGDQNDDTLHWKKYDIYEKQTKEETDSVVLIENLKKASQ

T2: Cynomolgus IL-13Rα1 expressed in transfected Ba/F3 cells (Cynomolgus, UniProt A0A7N9D0M5 20-425)
T2 construct: Stably transfected murine Ba/F3 cells
T2 sequence: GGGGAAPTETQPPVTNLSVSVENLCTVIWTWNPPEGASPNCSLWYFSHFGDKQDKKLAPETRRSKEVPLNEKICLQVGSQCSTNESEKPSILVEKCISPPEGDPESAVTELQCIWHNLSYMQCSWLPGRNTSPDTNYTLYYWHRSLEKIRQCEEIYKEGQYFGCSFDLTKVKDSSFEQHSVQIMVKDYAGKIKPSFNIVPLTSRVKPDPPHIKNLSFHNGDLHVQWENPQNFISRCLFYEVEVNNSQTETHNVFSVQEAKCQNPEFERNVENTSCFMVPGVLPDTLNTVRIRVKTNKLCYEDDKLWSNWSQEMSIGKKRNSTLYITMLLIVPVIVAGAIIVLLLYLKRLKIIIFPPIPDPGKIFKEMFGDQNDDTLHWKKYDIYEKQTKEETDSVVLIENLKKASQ

T3: hIL-13Rα1:hFc chimeric protein (R&D Systems, UK) (human, UniProt P78552 22-343)
T3 construct: extracellular domain; Bought; also called chimeric hIL-13Rα1:hFc; not shown: human Fc (hFc) of the bought chimera
T3 sequence (looked up): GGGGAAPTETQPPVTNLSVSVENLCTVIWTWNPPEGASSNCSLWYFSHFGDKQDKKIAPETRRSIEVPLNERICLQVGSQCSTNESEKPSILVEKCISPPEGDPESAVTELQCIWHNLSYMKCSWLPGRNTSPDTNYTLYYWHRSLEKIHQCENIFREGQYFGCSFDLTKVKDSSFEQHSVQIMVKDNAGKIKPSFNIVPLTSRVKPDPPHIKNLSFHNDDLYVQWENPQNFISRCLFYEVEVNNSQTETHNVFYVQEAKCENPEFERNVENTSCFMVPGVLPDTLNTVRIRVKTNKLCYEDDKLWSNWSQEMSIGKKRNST


Key:
human IL-13Rα1 [1] = molecular target: T1, human IL-13Rα1; experiment: cell-based or functional assay
[2] = molecular target: T2, Cynomolgus IL-13Rα1 expressed in …; experiment: FACS on Ba/F3 cells transfected with Cynomolgus IL-13Rα1, 10 µg/ml
Procedure: (§1) The gene coding for IL-13Rα1 was isolated by RT-PCR from Cynomolgus tissue and transfected into in the murine cell line Ba/F3. In order to test whether the HuMabs crossreact with Cynomolgus IL-13Rα1, the stably transfected Ba/F3 cells as well as the parental Ba/F3 cells were incubated with 10 μg/ml of HuMab and control antibodies. As positive control, a polyclonal goat-anti hIL-13Rα1 (R&D Systems) was used. Negative controls included were: a human IgG1 myeloma protein (Nordic) and normal goat serum. Bound antibodies were detected by FACS analysis using an antibody directed against human IgG conjugated with FITC to detect HuMabs and an antibody directed against goat IgG conjugated with FITC to detect goat antibodies. Mean fluorescence intensities (MFI) were compared for the individual antibodies tested on the transfected Ba/F3 line versus the parental line.
(§2) All HuMabs of the invention were able to bind to Cynomolgus IL-13Rα1 expressed in transfected Ba/F3 cells. As expected from the close homology between human and Cynomolgus IL-13Rα1, the polyclonal AF152 antibody also bound to the Cynomolgus IL-13Rα1.

human IL-13Rα1 [3] = molecular target: T1, human IL-13Rα1; experiment: radioligand competition: 125I-IL-13 (0.1 nM) binding to CHO cells expressing human IL-13Rα1 and IL-4Rα
Procedure: ¹²⁵I-IL-13 binding assay was performed using CHO cells expressing human IL-13Rα1 and human IL-4Rα in binding buffer (25 mM HEPES, 150 mM NaCl, 1 mM CaCl₂, 5 mM MgCl₂, and 0.5% bovine serum albumin, adjusted to pH 7.2). 1×10⁵ cells per well were mixed with the antibodies and preincubated for 15 minutes to 1 hour. 0.1 nM ¹²⁵I-IL-13 was added, and the mix was incubated at 4° C. for 4 hours. The concentration of ¹²⁵I-IL-13 used in the assay was determined from saturation binding analysis, competition analysis and determination of input ¹²⁵I-IL-13 to reach equilibrium binding with the cell line. Samples were harvested onto a GF/C filter plate pretreated with 1% PEI/0.5% BSA and counted on Packard TopCount Scintillation counter. Data analysis was performed in PRISM using nonlinear regression curve fit (GraphPad Software, San Diego, Calif.).

[4] = molecular target: T2, Cynomolgus IL-13Rα1 expressed in …; experiment: FACS, transfected against parental Ba/F3 cells, 10 µg/ml
Procedure: as §1, §2

[5] = molecular target: T3, hIL-13Rα1:hFc chimeric protein (R&D …); experiment: competition ELISA: hIL-13Rα1:hFc coated, antibody first, then IL-13 plus IL-4Rα; bound IL-13 detected with biotinylated anti-IL-13
Procedure: Microtiter plates were coated with 100 μl hIL-13Rα1:hFc chimeric protein (R&D Systems, UK) in PBS at 3 μg/ml at 4° C. overnight on a shaker. After washing the plates with WB, serially diluted HuMab and control antibodies (100 μl/well; dilutions in IB) were added and incubated for 30 min at RT. The plates were again washed, and then a mixture of IL-13 (R&D Systems, UK; 0.5 μg/ml; dilution with IB) and IL-4Rα (R&D Systems, UK; 0.75 μg/ml; dilution with IB) were added and incubated for 1 h at RT. After washing the plates 100 μl biotinylated anti IL-13 antibody (BAF213; R&D Systems, UK) in a concentration of 0.4 μg/ml was added and incubated for 1 h at RT. After washing the plates, bound IL-13 was detected by peroxidase-coupled streptavidin (Roche Diagnostics GmbH, DE) in a dilution of 1:5000 in IB (incubation period 1 h at RT). Finally, plates were washed and developed with ready-to-use ABTS® solution (Roche Diagnostics GmbH, DE) at room temperature (RT) in the dark. Absorbance was measured at 405 nm after 45 to 60 minutes.

Binder | IC50, IL-13-induced Stat-6 phosphorylation in BSMC (human IL-13Rα1 [1]) | IC50, TF-1 proliferation in response to IL-13 (human IL-13Rα1 [1]) | MFI Ba/F3_Cyno_IL-13Rα1 [2] | IC50 (read off the curve) (human IL-13Rα1 [3]) | Fold Increase in MFI in the presence of Cyno_IL-13Rα1 [4] | IC50 (read off the curve) [5]
HuMab LC5002-002 (antibody, human IgG1, V domains shown, Human IgG1 kappa from a HuMab mouse hybridoma; Only the variable domains are tied to this antibody; also called hu-MAB<h-IL-13R alpha>LC.5002-002 (DSM ACC2709)) VH: EVQLLESGGGLVQPGGSLRLSCAASGFTFNIYAMNWVRQAPGKGLEWVSVISGRGITTYYADSVKGRFTISRDNSKNTLYLQMNSLRADDTAVYYCAKGSSSWTDFDYWGQGTLVTVSS VL: DIQMTQSPSSLSASVGDRVTITCRASQGISRWVAWYQQKPEKAPKSLIYAASSLQSGVPSRFSGSGSGTDFTLTISSLQPEDFATYYCQQYNSYPWTFGQGTKVEIK |  | 9.21 nM | 83.7 MFI | ~0.1 nM | 79.8 | 1 to 2.5 nM
HuMab LC5002-003 (antibody, V domains shown, Human IgG1 kappa from a HuMab mouse hybridoma; Only the variable domains are tied to this antibody; also called LC50002-003; hu-MAB<h-IL-13Ralpha>LC.5002-003 (DSM ACC2710)) VH: EVQLLESGGDLIQPGGSLRLSCAASGFTFNIYAMNWVRQAPGKGLEWVSVISGRGITTYYADSVKGRFTISRDNSKNTLYLQMDSLRAEDTAVYYCAKGSSYWTDFDYWGQGTLVTVSS VL: DIQMTQSPSSLSASVGDRVTITCRASQGISSWLAWYQQKPEKAPKSLIYAASSLQSGVPSRFSGSGSGTDFTLTISSLQPEDFATYYCQQYNSYPWTFGQGTKVEIK | 5.98 nM | 3.07 nM | 82.4 MFI | ~0.2 nM | 79 | ~2 nM

Further lines, results first:

IC50, IL-13-induced Stat-6 phosphorylation in BSMC (human IL-13Rα1 [1]) | IC50, TF-1 proliferation in response to IL-13 (human IL-13Rα1 [1]) | MFI Ba/F3_Cyno_IL-13Rα1 [2] | IC50 (read off the curve) (human IL-13Rα1 [3]) | Fold Increase in MFI in the presence of Cyno_IL-13Rα1 [4] | IC50 (read off the curve) [5] | Binder
1.18 nM | 0.39 nM | 102 MFI | ~0.1 nM | 86.7 |  | HuMab LC5002-005 (antibody, V domains shown, Only the variable domains are tied to this antibody; also called hu-MAB<h-IL-13Ralpha>LC.5002-005 (DSM ACC2711)) VH: EVQVLDSGGGLVQPGGSLRLSCTASGFTFRLYTMSWVRQTPGRGLEWVSGISGSGLSTYFADSVKGRFTISRDNSKNTVYLQMNSLRAEDTAVYYCAKEGDWIYFDSWGQGTLVIVSS VL: DIQMTQSPSSLSASVGDRVTITCRASQGISSWLAWYQQKPEKAPKSLIYAASSLQSGVPSRFSGSGSGTDFTLTISSLQPEDFATYYCQQYNSHPPTFGQGTKLEIK
 |  | 19 MFI |  | 14.9 | ~1 nM | HuMab LC5002-007 (antibody, human IgG1, V domains shown, Human IgG1 kappa from a HuMab mouse hybridoma; Only the variable domains are tied to this antibody; also called hu-MAB<h-IL-13R alpha>LC.5002-007 (DSM ACC2712)) VH: QVQLVQSGAEVKKPGSSVKVSCKVSGGTFSSYAFSWVRQAPGQGLEWMGRIIPILGRTNYAQKFQGRVTITADKSTSTAYMEVSSLRSEDTAVYYCAREGETLDYFYYGMDVWGQGTTVTVSS VL: EIVLTQSPGTLSLSPGERATLSCRASQSVSSSYLAWYQQKPGQAPRLLIYGASSRAIGIPDRFSGSGSGTDFTLTISRLEPEDFAVYYCQHYGSSLTFGGGTKVEIK
